Patent US20070218504A1, “HUMAN LEPTIN-DERIVED POLYPEPTIDES AND USES THEREOF” (UNIVERSITY OF PITTSBURGH, priority 2006, published 2007)

Experiments:
[1] = molecular target: T1, long-form human leptin receptor, OB-Rb (Homo sapiens, UniProt P48357); assay: 125I-labeled human leptin binding to OB-Rb on stably transfected HEK293 cells, with or without pre-incubation with human CRP
T1 construct: expressed in transfected cells
T1 sequence (P48357 22-1165): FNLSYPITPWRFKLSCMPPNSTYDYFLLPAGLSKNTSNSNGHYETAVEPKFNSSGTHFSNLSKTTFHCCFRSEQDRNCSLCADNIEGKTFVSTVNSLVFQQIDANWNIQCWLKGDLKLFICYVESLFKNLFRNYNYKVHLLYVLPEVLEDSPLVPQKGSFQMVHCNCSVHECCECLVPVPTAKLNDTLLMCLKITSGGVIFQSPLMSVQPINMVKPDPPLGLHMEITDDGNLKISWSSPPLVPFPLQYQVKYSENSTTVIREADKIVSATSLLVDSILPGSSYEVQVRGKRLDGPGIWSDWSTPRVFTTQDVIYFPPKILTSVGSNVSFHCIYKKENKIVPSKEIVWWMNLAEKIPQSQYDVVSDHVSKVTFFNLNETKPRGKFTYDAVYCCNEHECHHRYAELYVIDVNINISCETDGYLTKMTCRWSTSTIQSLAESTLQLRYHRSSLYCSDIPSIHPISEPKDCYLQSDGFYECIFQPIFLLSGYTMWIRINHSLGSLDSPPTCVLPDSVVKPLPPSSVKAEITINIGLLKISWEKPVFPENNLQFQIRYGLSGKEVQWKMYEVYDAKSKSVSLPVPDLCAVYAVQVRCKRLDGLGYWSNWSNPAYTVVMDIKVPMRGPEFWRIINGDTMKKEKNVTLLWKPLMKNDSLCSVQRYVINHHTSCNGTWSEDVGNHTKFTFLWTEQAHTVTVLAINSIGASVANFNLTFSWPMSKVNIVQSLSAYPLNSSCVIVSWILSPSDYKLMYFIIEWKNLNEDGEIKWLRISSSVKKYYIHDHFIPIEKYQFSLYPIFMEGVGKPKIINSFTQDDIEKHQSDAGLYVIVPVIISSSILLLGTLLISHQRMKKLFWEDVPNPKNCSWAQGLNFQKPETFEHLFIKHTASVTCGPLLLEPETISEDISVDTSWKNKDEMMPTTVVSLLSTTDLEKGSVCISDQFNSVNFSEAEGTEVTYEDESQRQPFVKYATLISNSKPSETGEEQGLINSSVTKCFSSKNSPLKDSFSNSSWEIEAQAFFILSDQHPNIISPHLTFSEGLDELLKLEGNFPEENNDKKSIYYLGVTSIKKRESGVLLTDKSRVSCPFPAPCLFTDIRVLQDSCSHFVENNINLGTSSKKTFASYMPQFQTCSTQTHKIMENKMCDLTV
Method: FIG. 4A. Interference effect of human CRP on human leptin binding to its receptor. HEK293 cells stably transfected with the long-form human leptin receptor, OB-Rb (14), are used to examine whether human CRP interferes with the ability of human leptin to bind to its receptor. […] The dashed line at the bottom right of the graph indicates ^125I-leptin bound when two thousand fold excess of non-labeled leptin is added.
To examine if CRP binding interferes with the stability of human leptin to bind to its receptors, a HEK293 cell line stably transfected with the long-form human leptin receptor, OB—Rb, was used (17). Human leptin was iodinated with Na^125I using the lodogen method. Briefly, 15 μg of recombinant human leptin in 100 mM Phosphate buffer pH 7.5 were incubated with 1 mCi of carrier-free Na^125I (2200 Ci/mmol) in a glass tube containing 50 μg Iodogen. After 10-minute incubation at room temperature, the reaction was stopped with 100 μl 0.1% trifluoroacetic acid (TFA). The reaction mixture was immediately purified by reverse-phase HPLC. The separation employed a 5-minute isocratic step at 20% eluant B in A, followed by two consecutive 30 min linear gradients from 20 to 50%, then from 50 to 60% eluant B in A (where eluant A is water containing 0.1% TFA and eluant B is acetonitrile containing 0.1% TFA) at a flow rate of 1.5 ml/min. […]

CRP-transgenic mice = assay: Human leptin infusion in mice transgenically expressing human CRP and wild-type littermates; format: in vivo, mouse
Method: To complement the in vivo studies further, the satiety and weight-reducing functions of human leptin were evaluated in mice producing transgenically expressed human CRP (24). The average baseline serum concentration of human CRP in these mice was approximately 15 μg/ml. […] To evaluate the effects of human leptin in the transgenic mice, a dose of 0.6 mg/kg/day, which has been known to maximally but only temporarily affected energy balance in wild-type mice (25), was infused. […] At the end of infusion, the total human leptin concentration in the sera of transgenic mice averaged at 7.6 ng/ml, which was higher than that in the wild-type littermates at 3.2 ng/ml.

## human CRP: human C-reactive protein, purified preparation from a commercial source
[1]; in the presence of about 2 ng/ml human leptin, 1 hour pre-incubation
  IC50 of human CRP for reducing 125I-labeled human leptin binding to its receptor: approximately 80 ng/ml
CRP-transgenic mice; CRP transgenic mice, no human leptin
  effect of human CRP alone on food intake and body weight: did not meaningfully affect
CRP-transgenic mice; mice transgenically expressing human CRP
  average baseline serum concentration of human CRP: approximately 15 μg/ml

## human leptin: human recombinant leptin
[1]; HEK293 cells stably transfected with OB-Rb
  Kd: 1 nM
CRP-transgenic mice; 0.6 mg/kg/day infusion, CRP-transgenic mice
  physiological effects of human leptin in CRP-transgenic mice: completely blunted
CRP-transgenic mice; 0.6 mg/kg/day infusion, wild-type littermates
  effect of human leptin on food intake, body weight, epidydimal fat-pad weight in wild-type littermates: expected reductions in food intake, body weight, and epidydimal fat-pad weight
CRP-transgenic mice; end of infusion, CRP transgenic mice
  total human leptin concentration in sera, transgenic mice: 7.6 ng/mL
CRP-transgenic mice; end of infusion, wild-type littermates
  total human leptin concentration in sera, wild-type littermates: 3.2 ng/mL
